Source: US20260226147A1 (ATRECA, published 2026)

T1: NVDP3NANP2 peptide (NVDPNANPNVDPNANPNVDP) (Plasmodium falciparum, acetylated at N-terminus; amidated at C-terminus)
T1 construct: Synthetic peptide; also called long, minor repeat peptide
T1 peptide: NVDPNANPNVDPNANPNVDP

T2: NANP6 peptide (NANPNANPNANPNANPNANPNANP) (Plasmodium falciparum, N-terminal biotin-aminohexanoic acid tag; unmodified C-terminus)
T2 construct: Synthetic peptide (CPC scientific); also called (NANPx6) peptide; long, major repeat peptide
T2 peptide: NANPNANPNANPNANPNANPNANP

B1: AB-007163 (antibody, V domains shown)
VH: QVHLLESGGTVVQPGGSLRLSCEASGFIFSDYGMHWVRQVPGKGLEWVAVIWFDGSQKYYGDSVKGRFTVSRDNSKNTLYLQMNTLRADDTGIYYCATDIRGAYKVTDGGFDQWGHGTLVTVSP
VL: QSVLTQPPSISGAPGQRVTISCTGAGSNIGAGYEVHWYQQLPGTAPKLLMFADNNRPSGVPDRFSGSKSGTSASLAITGLQAEDEADYYCQSYDISLKNFVFGTGTTVTVL
B2: AB-001558 (antibody, V domains shown)
VH: QVQLVESGGGVVQPGRSLRLSCAASGFTFSSYGMHWVRQAPGKGLEWVAVIWYDGNNKYYVDSVKGRFTISRDNSKNTLYLQMNSLRAEDTAVYYCARDHDADYVEKWGAFDLWGQGTMVTVSS
VL: EIVMTQSPATLSVSPGERATLSCRASQSVSSNLAWYQQKPGQAPRLLIYGASARATGIPARFSGSGSGTEFTLTISSLQSEDFAVYYCQQYNNGRTFGQGTKVEIT

Assays:
[1] = target: T1, NVDP3NANP2 peptide …; experiment: SPR (Carterra LSA, 25 C), antibody immobilised on the chip, peptide as analyte
[2] = target: T2, NANP6 peptide (NANPNANPNANPNANPNANPNANP); experiment: as above
[3] = target: T3, recombinant CSP (Plasmodium falciparum circumsporozoite protein, 3D7) (Plasmodium falciparum, UniProt Q7K740 19-374); experiment: SPR (Carterra LSA), IgG captured, CSP analyte
T3 construct: also called CSP (3D7)
T3 sequence (Q7K740 19-374 limits assumed): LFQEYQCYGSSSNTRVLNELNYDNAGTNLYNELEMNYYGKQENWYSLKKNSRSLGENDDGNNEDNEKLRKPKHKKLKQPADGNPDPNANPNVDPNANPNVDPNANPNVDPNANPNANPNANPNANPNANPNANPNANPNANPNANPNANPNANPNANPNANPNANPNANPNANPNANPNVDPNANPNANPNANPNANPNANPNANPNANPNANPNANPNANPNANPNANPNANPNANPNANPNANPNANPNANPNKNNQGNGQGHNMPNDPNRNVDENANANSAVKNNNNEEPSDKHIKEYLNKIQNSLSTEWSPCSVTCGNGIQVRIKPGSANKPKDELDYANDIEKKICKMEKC

Binder | binding result [1] | binding result [2] | Kd [3] [nM]
B1 | binds | binds | 
B2 |  |  | 1.05
